Experimental data reported in patent publication US20250277045A1 (KEYMED BIOSCIENCES, published 2025).

Columns and labels:
[1] = biological target: T1, human BCMA on cells (CHO-hBCMA clone 2C2; NCI-H929; RPMI-8226) (human, UniProt Q02223 1-184); assay: flow cytometry, RPMI-8226 cells
T1 construct: whole, on cells; also called Human BCMA-CHO; CHO-hBCMA-2C2
T1 sequence (looked up): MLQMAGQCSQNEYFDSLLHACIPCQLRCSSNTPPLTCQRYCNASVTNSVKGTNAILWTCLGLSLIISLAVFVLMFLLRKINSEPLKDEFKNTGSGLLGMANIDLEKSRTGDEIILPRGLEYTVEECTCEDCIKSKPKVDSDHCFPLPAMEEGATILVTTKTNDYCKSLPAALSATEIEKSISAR
Method: (§1) The primary antibody was washed off, 50 μL/well Alexa Fluro647 labeled goat anti-human IgG Fc (1:300 dilution) was added, incubated on ice for 20 min, 50 μL/well PI was added after washing once, incubated for 5 min, and flow cytometer was used to perform detection.

[2] = biological target: T2, human CD3 on T cells (Jurkat cells; human peripheral blood CD4+ and CD8+ T cells) (human, UniProt P07766 23-207); assay: flow cytometry, peripheral blood CD8+ T cells (PBMC)
T2 construct: whole, on cells; also called CD3ε
Method: (§2) Fresh human or cynomolgus monkey peripheral blood was taken and PBMC was isolated by Ficoll-Paque Plu (GE, 17-1440-03). […] 50 μL/well Alexa Fluro647 labeled goat anti-human IgG Fc (1:300 dilution) was added to the secondary antibody, ice bath for 20 min, 50 μL/well PI was added after washing once, incubated for 5 min, and flow cytometer (BD C6) was used to perform detection.

[3] = biological target: T1, human BCMA on cells (CHO-hBCMA clone …); assay: flow cytometry, NCI-H929 cells
Method: as §1

[4] = biological target: T3, cynomolgus monkey BCMA on CHO cells (CHO-cynoBCMA clone 1A2) (cynomolgus monkey, UniProt A0A2K5UD97 1-183); assay: flow cytometry, CHO-cynomolgus monkey BCMA cells
T3 construct: whole, on cells; also called Cynomolgus monkey BCMA-CHO; CHO-cynoBCMA-1A2
Method: (§3) 50 μL/well Alexa Fluro647 labeled goat anti-human IgG Fc (1:300 dilution) was added to the secondary antibody, incubated on ice for 20 min, 50 μL/well PI solution (1:300) was added after washing once, incubated for 5 min, and flow cytometer was used to perform detection.

[5] = biological target: T1, human BCMA on cells (CHO-hBCMA clone …); assay: flow cytometry, CHO-human BCMA cells
Method: as §3

[6] = biological target: T2, human CD3 on T cells (Jurkat cells; …); assay: flow cytometry, peripheral blood CD4+ T cells (PBMC)
Method: as §2

[7] = biological target: T2, human CD3 on T cells (Jurkat cells; …); assay: flow cytometry, Jurkat cells
Method: Jurkat cells in the logarithmic growth phase were added with 200 μg/mL murine IgG (Jackson ImmunoResearch, 115-005-03) and incubated on ice for 30 min. […] 50 μL/well Alexa Fluro647 labeled goat anti-human IgG Fc (1:300 dilution) was added to the secondary antibody, incubated on ice for 20 min, 50 μL/well PI was added after washing once, incubated for 5 min, and flow cytometer (BD C6) was used to perform detection.

[8] = biological target: T4, human BCMA recombinant antigen (human, UniProt Q02223 1-53); assay: competition ELISA, coated human BCMA, antibody varied, then biotinylated human APRIL at 240 ng/mL, SA-HRP
T4 construct: range 1-53; also called human BCMA recombinant protein
T4 sequence (looked up): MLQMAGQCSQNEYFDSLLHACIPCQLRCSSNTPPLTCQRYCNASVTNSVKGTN
Method: 1 μg/mL human BCMA recombinant antigen was prepared with pH 9.6 carbonic acid buffer, added to a maxisorp96-well plate, and coated overnight at 4° C. After blocking with 5% skim milk/PBS for 1 h at room temperature, 50 μL antibody per well (4-fold dilution from 30 μg/mL for a total of 10 gradients) was added and incubated for 30 min at room temperature. […] After 3 washes with 0.05% PBST (PBS+0.05% Tween-20) and PBS respectively, 100 μL of SA-HRP (diluted 1:8000) was added to each well and incubated at room temperature for 45 min. Washing 3 times with 0.05% PBST and PBS respectively, 100 μL TMB color-developing solution was added into each well, after 10 min, 50 μL concentrated sulfuric acid was added into each well to stop the reaction, read OD450 nm by a microplate reader, and perform three-parameter fitting curve using Graphpad software.

[9] = biological target: T4, human BCMA recombinant antigen; assay: SPR (Biacore T200), antigen amine-coupled to CM5, antibody as analyte, 1:1 model
Method: (§4) 10 μg/mL human or cynomolgus monkey BCMA or CD3εγ recombinant antigen was bound to a CM5 chip (GE healthcare) by amino coupling, controlling the amount of antigen bound to approximately 200 RU. After the baseline plateau, gradient-diluted antibodies (from 10 μg/mL, 2-fold dilutions for 7 gradients) flowed through the chip at a flow rate of 30 μL/min for a binding time of 350 seconds and a dissociation time of 600 seconds. Kinetic constants were fitted using Biacore T200 evaluation software with a 1:1 binding model.

[10] = biological target: T5, cynomolgus monkey BCMA recombinant antigen (cynomolgus monkey, UniProt A0A2K5UD97 1-51); assay: as above
T5 construct: range 1-52
Method: as §4

[11] = biological target: T6, cynomolgus monkey CD3εγ-Fc heterodimer (cynomolgus monkey); assay: as above
T6 chain 1: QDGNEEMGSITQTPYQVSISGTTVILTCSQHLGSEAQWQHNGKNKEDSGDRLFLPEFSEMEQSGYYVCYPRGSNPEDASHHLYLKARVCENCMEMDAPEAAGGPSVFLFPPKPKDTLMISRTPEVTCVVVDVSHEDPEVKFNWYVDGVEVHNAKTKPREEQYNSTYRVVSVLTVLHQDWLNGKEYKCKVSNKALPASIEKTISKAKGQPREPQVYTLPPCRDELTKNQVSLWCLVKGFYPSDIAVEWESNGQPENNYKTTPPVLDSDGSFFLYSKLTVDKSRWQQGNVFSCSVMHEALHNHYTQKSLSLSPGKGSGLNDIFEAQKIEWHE
T6 chain 2: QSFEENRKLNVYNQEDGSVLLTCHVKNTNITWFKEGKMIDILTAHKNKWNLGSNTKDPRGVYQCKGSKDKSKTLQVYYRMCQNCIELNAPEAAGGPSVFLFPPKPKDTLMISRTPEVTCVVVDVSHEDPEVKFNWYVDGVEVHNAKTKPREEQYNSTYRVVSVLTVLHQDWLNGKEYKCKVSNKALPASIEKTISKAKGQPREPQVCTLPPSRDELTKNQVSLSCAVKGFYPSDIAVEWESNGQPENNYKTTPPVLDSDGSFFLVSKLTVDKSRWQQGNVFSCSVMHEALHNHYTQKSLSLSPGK
Method: as §4

T2 sequence (P07766 23-207): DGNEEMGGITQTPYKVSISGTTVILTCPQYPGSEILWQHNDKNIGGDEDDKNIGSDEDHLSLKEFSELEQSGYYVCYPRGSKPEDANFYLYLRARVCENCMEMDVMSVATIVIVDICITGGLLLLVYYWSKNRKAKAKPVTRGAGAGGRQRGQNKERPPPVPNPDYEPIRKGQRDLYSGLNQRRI
T5 sequence (A0A2K5UD97 entry or part of it): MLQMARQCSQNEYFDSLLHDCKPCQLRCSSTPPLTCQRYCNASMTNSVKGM
T3 sequence (A0A2K5UD97 entry or part of it): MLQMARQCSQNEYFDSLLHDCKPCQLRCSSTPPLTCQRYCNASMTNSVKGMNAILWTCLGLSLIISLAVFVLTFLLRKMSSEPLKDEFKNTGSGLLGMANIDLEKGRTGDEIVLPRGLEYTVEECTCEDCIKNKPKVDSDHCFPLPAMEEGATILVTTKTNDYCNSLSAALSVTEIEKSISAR

B1: BCMA×CD3 κλ003 (bispecific antibody, human IgG4 S228P, kappa, lambda)
light 1: DIVLTQSPASLAVSPGQRATITCRASKSVSTSGYSYMHWYQKKPGQPPKLLIYLASNLESGVPARFSGSGSGTDFTLTINPVEAEDTANYYCQHSRELPWTFGQGTKVEIKRTVAAPSVFIFPPSDEQLKSGTASVVCLLNNFYPREAKVQWKVDNALQSGNSQESVTEQDSKDSTYSLSSTLTLSKADYEKHKVYACEVTHQGLSSPVTKSFNRGEC
heavy 1: QVQLVQSGSELKKPGASVKVSCKASGYIFTNFGMNWVREAPGQGLEWMGWINTYTGEQIYADGFTGRFVFSLDTSASTAYLQISSLKAEDTAVYFCARGEIYYGYDVGFVYWGQGTLVTVSSASTKGPSVFPLAPCSRSTSESTAALGCLVKDYFPEPVTVSWNSGALTSGVHTFPAVLQSSGLYSLSSVVTVPSSSLGTKTYTCNVDHKPSNTKVDKRVESKYGPPCPPCPAPEFEGGPSVFLFPPKPKDTLMISRTPEVTCVVVDVSQEDPEVQFNWYVDGVEVHNAKTKPREEQFNSTYRVVSVLTVLHQDWLNGKEYKCKVSNKGLASSIEKTISKAKGQPREPQVCTLPPSQEEMTKNQVSLSCAVKGFYPSDIAVEWESNGQPENNYKTTPPVLDSDGSFFLVSKLTVDKSRWQEGNVFSCSVMHEALHNHYTQKSLSLSLGK
light 2: QAVVTQEPSLTVSPGGTVTLTCRSSTGAVTTSNYANWVQEKPGQAPRGLIGGTNKRAPWTPARFSGSLLGGKAALTITGAQAEDEAEYYCVLWYSNLWVFGGGTKLTVLGQPKAAPSVTLFPPSSEELQANKATLVCLISDFYPGAVTVAWKADSSPVKAGVETTTPSKQSNNKYAASSYLSLTPEQWKSHRSYSCQVTHEGSTVEKTVAPTECS
heavy 2: EVQLVESGGGLVQPGGSLRLSCAASGFTFNTYAMNWVRKAPGKGLEWVGRIRSKYNNYATYYADSVKDRFTISRDDSKNSLYLQMNSLKTEDTAVYYCVRHGNFGNSYVSWFAYWGQGTLVTVSSASTKGPSVFPLAPCSRSTSESTAALGCLVKDYFPEPVTVSWNSGALTSGVHTFPAVLQSSGLYSLSSVVTVPSSSLGTKTYTCNVDHKPSNTKVDKRVESKYGPPCPPCPAPEFEGGPSVFLFPPKPKDTLMISRTPEVTCVVVDVSQEDPEVQFNWYVDGVEVHNAKTKPREEQFNSTYRVVSVLTVLHQDWLNGKEYKCKVSNKGLASSIEKTISKAKGQPREPQVYTLPPCQEEMTKNQVSLWCLVKGFYPSDIAVEWESNGQPENNYKTTPPVLDSDGSFFLYSKLTVDKSRWQEGNVFSCSVMHEALHNHYTQKSLSLSLGK
[1]
  EC50: 34 nM
[2]
  EC50: 97 nM
[3]
  EC50: 34 nM
[4]
  EC50: 3 nM
[5]
  EC50: 16 nM
[6]
  EC50: 87 nM
[7]
  EC50: 66 nM
[8]
  IC50 (read off the curve): ~8 nM
[9]
  Kd: 1.3 nM
[10]
  Kd: 0.16 nM
[11]
  Kd: 43 nM

B2: BCMA×CD3 κλ004 (bispecific antibody, human IgG4 S228P, kappa, lambda)
light 1: DIVLTQSPASLAVSPGQRATITCRASKSVTTSGYSYIHWYQKKPGQPPKLLIYLASDLEAGVPARFSGSGSGTDFTLTINPVEAEDTANYYCQHSRELPWTFGQGTKVEIKRTVAAPSVFIFPPSDEQLKSGTASVVCLLNNFYPREAKVQWKVDNALQSGNSQESVTEQDSKDSTYSLSSTLTLSKADYEKHKVYACEVTHQGLSSPVTKSFNRGEC
heavy 1: QVQLVQSGSELKKPGASVKVSCKASGYIFTNFGMNWVREAPGQGLEWMGWINTYTGEQIYADGFTGRFVFSLDTSASTAYLQISSLKAEDTAVYFCARGEIYYGYDVGFVYWGQGTLVTVSSASTKGPSVFPLAPCSRSTSESTAALGCLVKDYFPEPVTVSWNSGALTSGVHTFPAVLQSSGLYSLSSVVTVPSSSLGTKTYTCNVDHKPSNTKVDKRVESKYGPPCPPCPAPEFEGGPSVFLFPPKPKDTLMISRTPEVTCVVVDVSQEDPEVQFNWYVDGVEVHNAKTKPREEQFNSTYRVVSVLTVLHQDWLNGKEYKCKVSNKGLASSIEKTISKAKGQPREPQVCTLPPSQEEMTKNQVSLSCAVKGFYPSDIAVEWESNGQPENNYKTTPPVLDSDGSFFLVSKLTVDKSRWQEGNVFSCSVMHEALHNHYTQKSLSLSLGK
light 2: QAVVTQEPSLTVSPGGTVTLTCRSSTGAVTTSNYANWVQEKPGQAPRGLIGGTNKRAPWTPARFSGSLLGGKAALTITGAQAEDEAEYYCVLWYSNLWVFGGGTKLTVLGQPKAAPSVTLFPPSSEELQANKATLVCLISDFYPGAVTVAWKADSSPVKAGVETTTPSKQSNNKYAASSYLSLTPEQWKSHRSYSCQVTHEGSTVEKTVAPTECS
heavy 2: EVQLVESGGGLVQPGGSLRLSCAASGFTFNTYAMNWVRKAPGKGLEWVGRIRSKYNNYATYYADSVKDRFTISRDDSKNSLYLQMNSLKTEDTAVYYCVRHGNFGNSYVSWFAYWGQGTLVTVSSASTKGPSVFPLAPCSRSTSESTAALGCLVKDYFPEPVTVSWNSGALTSGVHTFPAVLQSSGLYSLSSVVTVPSSSLGTKTYTCNVDHKPSNTKVDKRVESKYGPPCPPCPAPEFEGGPSVFLFPPKPKDTLMISRTPEVTCVVVDVSQEDPEVQFNWYVDGVEVHNAKTKPREEQFNSTYRVVSVLTVLHQDWLNGKEYKCKVSNKGLASSIEKTISKAKGQPREPQVYTLPPCQEEMTKNQVSLWCLVKGFYPSDIAVEWESNGQPENNYKTTPPVLDSDGSFFLYSKLTVDKSRWQEGNVFSCSVMHEALHNHYTQKSLSLSLGK
[1]
  EC50: 39 nM
[2]
  EC50: 84 nM
[3]
  EC50: 36 nM
[4]
  EC50: 3 nM
[5]
  EC50: 22 nM
[6]
  EC50: 77 nM
[7]
  EC50: 61 nM
[8]
  IC50 (read off the curve): ~5 nM
[9]
  Kd: 1 nM
[10]
  Kd: 0.12 nM
[11]
  Kd: 43 nM
